Data from the supplement of paper PMC9732359.
± gives the uncertainty stated by the source.

Assay: protein stability index of a GFP-peptide fusion (yeast GPS) (PSI 1-4); higher = more stable; sorted into four equal gates, so the index is relative within each strain
Summary of the method: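 Mid-log yeast cultures in leucine-free medium, carrying a pooled plasmid library, were sorted into four equal gates by their GFP/Cherry fluorescence ratio. Each plasmid expressed Cherry along with GFP fused upstream of a tiled 17-residue yeast protein peptide. Plasmids recovered from each gate were PCR-amplified and Illumina-sequenced, with reads assigned to strains by barcodes. The protein stability index was obtained by summing each gate's read frequency weighted by its gate number.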

Sequence	protein stability index (doa10∆)	protein stability index (pdr5∆)	protein stability index (san1∆)	protein stability index (ubr1∆)
AHIAKNLINLSIGASIA [YCS4]	1.34 ± 0.068	1.37 ± 0.072	1.94 ± 0.17	1.78 ± 0.057
AHTASVGVVFGSGAANE [COR1]	3.23 ± 0.12	3.29 ± 0.084	3.07 ± 0.1	3.39 ± 0.12
AIIVAGVQSNGDQFLRY [PRE4]	2.74 ± 0.095	2.83 ± 0.073	2.4 ± 0.13	2.28 ± 0.061
AIPLLKVLRKFRVQSQS [NUT1]	1.69 ± 0.085	1.93 ± 0.079	1.69 ± 0.11	2.5 ± 0.053
AIPNGIHLQRFDEGTTL [RPO21]	2.29 ± 0.064	1.89 ± 0.11		2.32 ± 0.062
AIQLDYSTANEYIIAAI [RPN3]	2.24 ± 0.058	2.09 ± 0.073	2.32 ± 0.094	2.47 ± 0.056
AIVPGQSISGTLELSAQ [SWP82]	3.43 ± 0.094	3.13 ± 0.11	2.98 ± 0.14	3.07 ± 0.092
AIYNNPTRIRTKSSKEF [RRI2]	1.41 ± 0.068	1.67 ± 0.06	1.68 ± 0.1	1.55 ± 0.061
AKAGLTFPVGRVHRLLR [HTA1]	2.03 ± 0.11	2.72 ± 0.14	2.01 ± 0.16	2.39 ± 0.12
AKAVWENIIIVGGTTSI [ARP9]	1.89 ± 0.044	2.12 ± 0.057	1.67 ± 0.081	2.48 ± 0.054
AKGFYHTPMVNFESISA [SRB8]	2.16 ± 0.06	1.84 ± 0.05	1.52 ± 0.11	1.93 ± 0.05
AKITEIGSTSKRPIESG [YIL149C/MLP2]	3.23 ± 0.084	3.07 ± 0.1	3.14 ± 0.11	3.31 ± 0.059
AKKKVLDVTKEAQANLL [RPO21]	2.41 ± 0.17	2.73 ± 0.11		2.84 ± 0.14
AKKNNFIEDLAPEQQVQ [UBP6]	2.81 ± 0.073	3.15 ± 0.08	2.99 ± 0.08	3.06 ± 0.065
AKLHRISPKIWCAGAGT [PUP1]	1.93 ± 0.049	1.87 ± 0.046	1.85 ± 0.056	1.88 ± 0.042
AKLNYKNLNPASSSPSS [ECM29]	3.25 ± 0.071	3.06 ± 0.08	2.79 ± 0.11	3.04 ± 0.051
AKRHRKILRDNIQGITK [HHF1]	3.01 ± 0.094	3.44 ± 0.098	3.21 ± 0.058	3.07 ± 0.069
AKRIRVSHHATTFTHCE [RPB2]	3.07 ± 0.07	3.15 ± 0.074	2.48 ± 0.09	2.88 ± 0.066
AKRVENFNSSAPIADDN [DSN1]	3.19 ± 0.084	3.32 ± 0.075	2.9 ± 0.1	3.43 ± 0.059
AKSDETKQASSFSFLNR [YLR335W/NUP2]	3.35 ± 0.069	3.39 ± 0.099	3.26 ± 0.044	3.31 ± 0.05
AKTLIPSLNNKISDDEL [RPB4]	2.98 ± 0.069	3.1 ± 0.069	3.06 ± 0.06	3.19 ± 0.061
ALCKNRKCQFRTPDSIS [POP1]	2.31 ± 0.053	2.77 ± 0.058	2.28 ± 0.082	1.94 ± 0.036
ALDGDLIELLEKLDVSR [YCG1]	3.27 ± 0.25	3.42 ± 0.2	3.16 ± 0.13	2.73 ± 0.2
ALDYLIPPPMPKNQQYR [MED7]	2.53 ± 0.08	2.58 ± 0.1	2.5 ± 0.096	2.6 ± 0.078
ALEFLNTTLQDNVSFIE [REC8]	2.95 ± 0.072	3.27 ± 0.12	3.05 ± 0.11	2.87 ± 0.072
ALFQPPNFDWDLCSSVL [ROX3]	3.08 ± 0.077	3.29 ± 0.098	2.95 ± 0.089	2.92 ± 0.09

Sequence	protein stability index (doa10∆)	protein stability index (pdr5∆)	protein stability index (san1∆)	protein stability index (ubr1∆)
ALLIEVFTALLRLFINE [ITC1]	2.11 ± 0.087	1.53 ± 0.076	1.42 ± 0.097	1.24 ± 0.051
ALLKLSVKLKQKRLEAG [DIS3]	1.11 ± 0.077	1.37 ± 0.085	1.04 ± 0.21	1.15 ± 0.099
ALNMLPSEILHLILDKL [GRR1]	2.37 ± 0.13	2.07 ± 0.073	1.95 ± 0.13	2.03 ± 0.045
ALPDVVVKGLPDISRAV [RPO31]	2.85 ± 0.13	2.74 ± 0.079	2.86 ± 0.072	3.08 ± 0.12
ALPRGARTATVSKKWAA [RPL14A]	2.25 ± 0.067	2.23 ± 0.065	1.96 ± 0.1	2.14 ± 0.056
ALQKGLKDLMDLCDVVE [RPC19]	3.44 ± 0.24	2.84 ± 0.28	2.92 ± 0.13	3.02 ± 0.14
ALSYAALILADSEIEIS [RPP1A]	1.8 ± 0.058	1.93 ± 0.062	1.78 ± 0.06	1.9 ± 0.04
ALTNELNELKAIKDKLE [YIL149C/MLP2]	1.35 ± 0.061	2.01 ± 0.07	1.89 ± 0.096	1.96 ± 0.058
ALVAYTPTDVIGVVSLT [RRP6]	1.96 ± 0.091	1.57 ± 0.054	1.37 ± 0.11	1.93 ± 0.072
ALYPQEARLRNLTYSSG [RPB2]	2.39 ± 0.093	2.73 ± 0.1	2.75 ± 0.085	2.49 ± 0.089
AMQYVCGDSIICNTLNI [SMC1]	1.57 ± 0.072	1.65 ± 0.065	1.5 ± 0.1	1.51 ± 0.071
ANAAKRAEAKAQGVAVQ [RPL21A]	2.55 ± 0.13	1.96 ± 0.13	2.06 ± 0.28	1.92 ± 0.14
ANEEPNTENVESVPTPA [ITC1]	2.87 ± 0.14	2.91 ± 0.11	2.98 ± 0.26	3.18 ± 0.15
ANETDKRPTPPSFTFGG [YOR098C/NUP1]	3.01 ± 0.042	3.18 ± 0.047	2.96 ± 0.037	3.1 ± 0.033
ANTNSVTSMEAAREKKI [YIL149C/MLP2]	3 ± 0.077	3.05 ± 0.078	3 ± 0.049	3.01 ± 0.047
ANVDQISFLEPINLKFL [YMR129W/POM152]	2.75 ± 0.057	2.89 ± 0.077	2.92 ± 0.054	2.91 ± 0.048
ANVIKALAFCEIGITQQ [RRP4]	1.36 ± 0.07	2 ± 0.079	1.76 ± 0.16	2.26 ± 0.075
ANVLDPSLRKLIESGIG [BRR2]	1.87 ± 0.064	2.38 ± 0.071	2.47 ± 0.095	2.56 ± 0.045
APAFHTSGKVELPKKLL [SRB8]			2.93 ± 0.2	2.84 ± 0.12
APMDFAIVVGWRAIIKA [FAS1]	2.51 ± 0.086	2.66 ± 0.08	2.57 ± 0.082	2.14 ± 0.062
APPQRPRFNRDNKVSPA [RPS26B]	2.79 ± 0.1	2.45 ± 0.11	3.09 ± 0.14	
APSLTVPPIASPQQFLR [PRE2]	1.56 ± 0.05	1.95 ± 0.058	1.67 ± 0.071	1.65 ± 0.045
AQTIGRNSKTVREFLEK [PRE6]	2.76 ± 0.2	3.27 ± 0.29	3.29 ± 0.07	3.02 ± 0.14
ARCYRYQKNKPYPKSRY [RPL10]	2.3 ± 0.064	2.38 ± 0.065	2.41 ± 0.055	2.77 ± 0.057
ARDLLTRDEKDPKRLFE [RPS9A]	3.37 ± 0.19	3.6 ± 0.11	3.14 ± 0.14	3.62 ± 0.083
